Laboratory results as given in patent publication US20220267421A1 (INVOX PHARMA, published 2022).

Key:
human MSLN-His-Avi [1] = target: T1, human MSLN-His-Avi (human, UniProt Q13421 296-598, single biotin (BirA) in the biotinylated form); assay: SPR as Example 4.1 (about 40 RU instead of 100), MSLN immobilised
T1 construct: Monomeric, made in HEK293-6E; Used both immobilised and in solution; also called hMSLN-His-Avi; biotinylated hMSLN-His-Avi

human MSLN-His-Avi [2] = target: T1, human MSLN-His-Avi; assay: SPR as Example 4.1 (about 40 RU instead of 100), MSLN in solution
human MSLN-His-Avi [3] = target: T1, human MSLN-His-Avi; assay: ratio of the two SPR KD

T1 sequence (Q13421 other isoform, or with tags, fused parts or gaps): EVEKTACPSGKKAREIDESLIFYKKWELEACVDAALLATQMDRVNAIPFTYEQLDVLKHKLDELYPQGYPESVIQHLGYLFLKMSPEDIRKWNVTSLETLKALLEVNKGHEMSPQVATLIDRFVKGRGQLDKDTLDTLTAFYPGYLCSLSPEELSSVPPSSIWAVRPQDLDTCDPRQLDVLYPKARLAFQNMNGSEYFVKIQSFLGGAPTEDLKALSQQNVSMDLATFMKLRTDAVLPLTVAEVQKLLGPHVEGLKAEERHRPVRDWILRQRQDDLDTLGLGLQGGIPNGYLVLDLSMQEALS

B1: FS28-256-274 (in CD137 mAb^2 format) (bispecific antibody, V domains shown)
VH: EVQLLESGGGLVQPGGSLRLSCAASGFTFTHTYMSWVRQAPGKGLEWVSTISPTYSTTNYADSVKGRFTISRDNNKNTLYLQMNSLRAEDTAVYYCARYNAYHAALDYWGQGTLVTVSS
VL: EIVLTQSPGTLSLSPGERATLSCRASQSVSSSYLAWYQQKPGQAPRLLIYGASSRATGIPDRFSGSGSGTDFTLTISRLEPEDFAVYYCQQTVPYPYTFGQGTKVEIK
With B1 the Kd (human MSLN-His-Avi [1]) was 19.8 nM, the Kd (human MSLN-His-Avi [2]) was 55.9 nM and the “Ratio of KD in solution/immobilised for human MSLN-His-Avi” value (“Ratio of KD in solution/immobilised” below) (human MSLN-His-Avi [3]) was 2.8.

B2: FS28-256-027 (in CD137 mAb^2 format, Table 6) (bispecific antibody, V domains shown)
VH: EVQLLESGGGLVQPGGSLRLSCAASGFTFTHTYMSWVRQAPGKGLEWVSNISPTYSTTNYADSVKGRFTISRDNNKNTLYLQMNSLRAEDTAVYYCARYNAYHAALDYWGQGTLVTVSS
VL: EIVLTQSPGTLSLSPGERATLSCRASQSVSSSYLAWYQQKPGQAPRLLIYGASSRATGIPDRFSGSGSGTDFTLTISRLEPEDFAVYYCQQTVPYPYTFGQGTKVEIK
B2 was tested, and the Kd (human MSLN-His-Avi [1]) was 4.7 nM, the Kd (human MSLN-His-Avi [2]) was 3.2 nM and the “Ratio of KD in solution/immobilised” value (human MSLN-His-Avi [3]) was 0.68.

B3: FS28-256-272 (in CD137 mAb^2 format) (bispecific antibody, V domains shown)
VH: EVQLLESGGGLVQPGGSLRLSCAASGFTFTHTYMSWVRQAPGKGLEWVSHISPTYSTTNYADSVKGRFTISRDNNKNTLYLQMNSLRAEDTAVYYCARYNAYHAALDYWGQGTLVTVSS
VL: EIVLTQSPGTLSLSPGERATLSCRASQSVSSSYLAWYQQKPGQAPRLLIYGASSRATGIPDRFSGSGSGTDFTLTISRLEPEDFAVYYCQQTVPYPYTFGQGTKVEIK
notes: Position 55 is IMGT numbering, not the count on the entry
For B3, the Kd (human MSLN-His-Avi [1]) was 10.7 nM, the Kd (human MSLN-His-Avi [2]) was 7.6 nM and the “Ratio of KD in solution/immobilised” value (human MSLN-His-Avi [3]) was 0.7.

B4: FS28-256-273 (in CD137 mAb^2 format) (bispecific antibody, V domains shown)
VH: EVQLLESGGGLVQPGGSLRLSCAASGFTFTHTYMSWVRQAPGKGLEWVSSISPTYSTTNYADSVKGRFTISRDNNKNTLYLQMNSLRAEDTAVYYCARYNAYHAALDYWGQGTLVTVSS
VL: EIVLTQSPGTLSLSPGERATLSCRASQSVSSSYLAWYQQKPGQAPRLLIYGASSRATGIPDRFSGSGSGTDFTLTISRLEPEDFAVYYCQQTVPYPYTFGQGTKVEIK
In the case of B4, the Kd (human MSLN-His-Avi [1]) is reported as 6 nM, the Kd (human MSLN-His-Avi [2]) is reported as 7.4 nM and the “Ratio of KD in solution/immobilised” value (human MSLN-His-Avi [3]) is reported as 1.2.
